Results reported in article PMC5298014, “Site‐Specific Immobilization of the Peptidoglycan Synthase PBP1B on a Surface Plasmon Resonance Chip Surface” (Chembiochem, 2016).
Several values for one entry are separate records, joined by “and”; a condition that tells them apart may be missing. Identical values can stand only once.

Target: T1, LpoB(sol) (signal sequence and lipid anchor of LpoB replaced by an oligohistidine tag)
T1 construct: also called His-LpoB(sol); source: E. coli BL21(DE3) with pET28LpoB, purified (HisTrap, thrombin, HiTrap Q flow-through, Superdex 200)
Assay: SPR; IBIS-MX96; PBP1B Gly55AzF immobilised through its azide on a SensEye P-NH2 sensor coated with sulfo-dibenzylcyclooctyne-NHS ester, blocked with azidoethanol; LpoB injected at different concentrations; running buffer 10 mM Tris/maleate pH 7.5, 150 mM NaCl, 0.05 % Triton X-100; KD from maximum RU against concentration, one-site saturation
Settings: both partners purified

B1: PBP1B Gly55AzF (N-terminal His6-tagged PBP1Bγ with p-azidophenylalanine in place of Gly55) (enzyme)
chain: MPRKGKGKGKFRKPRGKRGWLWLLLKLAIVFAVLIAIYGVYLDQKIRSRIDGKVWQLPAAVYGRMVNLEPDMTISKNEMVKLLEATQYRQVSKMTRPGEFTVQANSIEMIRRPFDFPDSKEGQVRARLTFDGDHLATIVNMENNRQFGFFRLDPRLITMISSPNGEQRLFVPRSGFPDLLVDTLLATEDRHFYEHDGISLYSIGRAVLANLTAGRTVQGASTLTQQLVKNLFLSSERSYWRKANEAYMALIMDARYSKDRILELYMNEVYLGQSGDNEIRGFPLASLYYFGRPVEELSLDQQALLVGMVKGASIYNPWRNPKLALERRNLVLRLLQQQQIIDQELYDMLSARPLGVQPRGGVISPQPAFMQLVRQELQAKLGDKVKDLSGVKIFTTFDSVAQDAAEKAAVEGIPALKKQRKLSDLETAIVVVDRFSGEVRAMVGGSEPQFAGYNRAMQARRSIGSLAKPATYLTALSQPKIYRLNTWIADAPIALRQPNGQVWSPQNDDRRYSESGRVMLVDALTRSMNVPTVNLGMALGLPAVTETWIKLGVPKDQLHPVPAMLLGALNLTPIEVAQAFQTIASGGNRAPLSALRSVIAEDGKVLYQSFPQAERAVPAQAAYLTLWTMQQVVQRGTGRQLGAKYPNLHLAGKTGTTNNNVDTWFAGIDGSTVTITWVGRDNNQPTKLYGASGAMSIYQRYLANQTPTPLNLVPPEDIADMGVDYDGNFVCSGGMRILPVWTSDPQSLCQQSEMQQQPSGNPFDQSSQPQQQPQQQPAQQEQKDSDGVAGWIKDMFGSN
modifications: p-azidophenylalanine in place of Gly55; coupled through this azide to dibenzylcyclooctyne on the chip surface
  Kd: 710 to 970 nM and 840 nM
